The results in this text go back to PMC7686362, “Recent evolution of a TET-controlled and DPPA3/STELLA-driven pathway of passive DNA demethylation in mammals” (Nature Communications, 2020).

Usually Kd stands for a measure of binding affinity in units of concentration. The low end stands for a tighter complex, the high end for a looser complex.

Test [1] has as its target endogenous UHRF1-GFP (Uhrf1 locus tagged with GFP in mouse ESCs) (mouse (endogenous in J1 ESCs)) (UniProt Q8VDF2).
Test [2] deals with T1, mUHRF1 C-terminally tagged with GFP- and 6xHis-tag (mouse, UniProt Q8VDF2 1-782).
T1 construct: UHRF1, mouse (mUHRF1); also called UHRF1-eGFP; recombinant UHRF1-GFP; source: HEK 293T cells, purified (Ni-NTA beads); not shown: GFP, C-terminal, kept
T1 sequence (looked up): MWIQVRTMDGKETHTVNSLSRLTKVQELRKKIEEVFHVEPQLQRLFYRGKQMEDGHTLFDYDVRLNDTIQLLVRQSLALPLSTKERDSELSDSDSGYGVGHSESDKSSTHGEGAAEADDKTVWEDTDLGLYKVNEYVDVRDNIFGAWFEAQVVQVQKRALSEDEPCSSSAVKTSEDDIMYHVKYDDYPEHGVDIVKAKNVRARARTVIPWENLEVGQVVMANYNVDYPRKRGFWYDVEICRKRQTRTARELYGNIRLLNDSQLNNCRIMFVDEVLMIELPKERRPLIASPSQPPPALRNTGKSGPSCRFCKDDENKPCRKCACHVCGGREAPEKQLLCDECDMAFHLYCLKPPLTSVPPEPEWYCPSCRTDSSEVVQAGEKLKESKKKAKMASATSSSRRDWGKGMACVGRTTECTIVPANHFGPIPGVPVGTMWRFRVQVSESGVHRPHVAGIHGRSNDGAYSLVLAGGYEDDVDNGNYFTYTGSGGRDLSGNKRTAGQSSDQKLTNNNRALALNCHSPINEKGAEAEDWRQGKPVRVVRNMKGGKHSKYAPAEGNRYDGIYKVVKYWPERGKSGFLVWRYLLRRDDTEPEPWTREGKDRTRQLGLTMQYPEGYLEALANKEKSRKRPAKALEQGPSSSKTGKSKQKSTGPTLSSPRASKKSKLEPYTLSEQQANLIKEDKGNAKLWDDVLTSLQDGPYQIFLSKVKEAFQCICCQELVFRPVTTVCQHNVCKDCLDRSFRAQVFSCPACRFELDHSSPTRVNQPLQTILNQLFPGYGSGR
The experiment in a line: MST; 200 nM UHRF1-GFP-6xHis mixed with 0.15 nM to 5 µM GST-DPPA3, 30 min on ice; Monolith NT.115, 80% LED and 80% MST power. The following applies: both partners purified.

“DPPA3-KRR-mScarlet (K85E/R85E/R87E as printed) (from UniProt Q8QZY3 1-150) (natural protein)” showed a mobile fraction of UHRF1-GFP by RICS in live ESCs expressing DPPA3-KRR in test [1] of 32.4%.

B1: GST-mDPPA3 wild-type (natural protein, mouse, UniProt Q8QZY3 1-150, looked up)
chain: MEEPSEKVDPMKDPETPQKKDEEDALDDTDVLQPETLVKVMKKLTLNPGVKRSARRRSLRNRIAAVPVENKSEKIRREVQSAFPKRRVRTLLSVLKDPIAKMRRLVRIEQRQKRLEGNEFERDSEPFRCLCTFCHYQRWDPSENAKIGKN
notes: DPPA3, mouse, fragment corresponding to the full-length protein amplified from mouse DPPA3 cDNA, in pGEX4T-3; also called GST-DPPA3 WT; D3^WT; source: E. coli BL21-CodonPlus, purified (Glutathione Sepharose, PD10 desalting)
Consider B1, for which, in test [2], the Kd is 440 nM.
